Measured values: publication PMC9583931, “Emerin interacts with histone methyltransferases to regulate repressive chromatin at the nuclear periphery” (Frontiers in Cell and Developmental Biology, 2022)
Substitutions are numbered along the chain they refer to. In names and notes the source's numbering stands.

B1: euchromatic histone lysine methyltransferase 2 (G9a) (enzyme, UniProt Q9Z148 1-1263, looked up)
chain: MRGLPRGRGLMRARGRGRAAPTGGRGRGRGGAHRGRGRPRSLLSLPRAQASWAPQLPAGLTGPPVPCLPSQGEAPAEMGALLLEKEPRGAAERVHSSLGDTPQSEETLPKANPDSLEPAGPSSPASVTVTVGDEGADTPVGAASLIGDEPESLEGDGGRIVLGHATKSFPSSPSKGGACPSRAKMSMTGAGKSPPSVQSLAMRLLSMPGAQGAATAGPEPSPATTAAQEGQPKVHRARKTMSKPSNGQPPIPEKRPPEVQHFRMSDDMHLGKVTSDVAKRRKLNSGSLSEDLGSAGGSGDIILEKGEPRPLEEWETVVGDDFSLYYDAYSVDERVDSDSKSEVEALAEQLSEEEEEEEEEEEEEEEEEEEEEEEEEDEESGNQSDRSGSSGRRKAKKKWRKDSPWVKPSRKRRKREPPRAKEPRGVNGVGSSGPSEYMEVPLGSLELPSEGTLSPNHAGVSNDTSSLETERGFEELPLCSCRMEAPKIDRISERAGHKCMATESVDGELLGCNAAILKRETMRPSSRVALMVLCEAHRARMVKHHCCPGCGYFCTAGTFLECHPDFRVAHRFHKACVSQLNGMVFCPHCGEDASEAQEVTIPRGDGGTPPIGTAAPALPPLAHDAPGRADTSQPSARMRGHGEPRRPPCDPLADTIDSSGPSLTLPNGGCLSAVGLPPGPGREALEKALVIQESERRKKLRFHPRQLYLSVKQGELQKVILMLLDNLDPNFQSDQQSKRTPLHAAAQKGSVEICHVLLQAGANINAVDKQQRTPLMEAVVNNHLEVARYMVQLGGCVYSKEEDGSTCLHHAAKIGNLEMVSLLLSTGQVDVNAQDSGGWTPIIWAAEHKHIDVIRMLLTRGADVTLTDNEENICLHWASFTGSAAIAEVLLNAQCDLHAVNYHGDTPLHIAARESYHDCVLLFLSRGANPELRNKEGDTAWDLTPERSDVWFALQLNRKLRLGVGNRAVRTEKIICRDVARGYENVPIPCVNGVDGEPCPEDYKYISENCETSTMNIDRNITHLQHCTCVDDCSSSNCLCGQLSIRCWYDKDGRLLQEFNKIEPPLIFECNQACSCWRSCKNRVVQSGIKVRLQLYRTAKMGWGVRALQTIPQGTFICEYVGELISDAEADVREDDSYLFDLDNKDGEVYCIDARYYGNISRFINHLCDPNIIPVRVFMLHQDLRFPRIAFFSSRDIRTGEELGFDYGDRFWDIKSKYFTCQCGSEKCKHSAEAIALEQSRLARLDPHPELLPDLSSLPPINT
notes: G9a (EHMT2), endogenous protein of mouse myogenic progenitors; also called EHMT2; source: endogenous, mouse myogenic progenitors, in lysate (soluble fraction)
B2: emerin (endogenous, wildtype myogenic progenitors) (natural protein, UniProt O08579 1-259, looked up)
chain: MDDYAVLSDTELAAVLRQYNIPHGPIVGSTRKLYEKKIFEYETQRRRLLPPNSSSSSFSYQFSDLDSAAVDSDMYDLPKKEDALLYQSKDYNDDYYEESYLTTKTYGEPESVGMSKSFRQPGTSLVDADTFHHQVRDDIFSSLEEEGKDRERLIYGQDSAYQSIAHYRPISNVSRSSLGLSYYPTSSTSSVSSSSSSPSSWLTRRAIRPEKQAPAAALGQDRQVPLWGQLLLFLVFAAFLLFVYYSIQAEEGNPFWMDP
notes: emerin, endogenous protein of H2K wildtype mouse myogenic progenitors; also called wildtype emerin; endogenous emerin; source: endogenous, H2K wildtype mouse myogenic progenitors, in lysate (soluble fraction)
B3: EZH2 (enzyme)
chain: not shown
notes: EZH2, endogenous protein of mouse myogenic progenitors; also called catalytic component of PRC2; source: endogenous, mouse myogenic progenitors, in lysate (soluble fraction)
B4: emerin S54F (EDMD1 mutant) (natural protein, UniProt P50402 1-254, looked up)
chain: MDNYADLSDTELTTLLRRYNIPHGPVVGSTRRLYEKKIFEYETQRRRLSPPSSFAASSYSFSDLNSTRGDADMYDLPKKEDALLYQSKGYNDDYYEESYFTTRTYGEPESAGPSRAVRQSVTSFPDADAFHHQVHDDDLLSSSEEECKDRERPMYGRDSAYQSITHYRPVSASRSSLDLSYYPTSSSTSFMSSSSSSSSWLTRRAIRPENRAPGAGLGQDRQVPLWGQLLLFLVFVIVLFFIYHFMQAEEGNPF
notes: emerin with the EDMD1-causing mutation S54F; also called S54F emerin
B5: emerin Q133H (EDMD1 mutant) (natural protein, UniProt P50402 1-254, looked up)
chain: B4 chain with F54S, Q133H
notes: emerin with the EDMD1-causing mutation Q133H; also called Q133H emerin

Experiments:
Conditions in all cases: partners not purified
[1] = molecular target: B2; assay: co-IP; anti-emerin antibody on protein G magnetic beads, incubated overnight with the soluble fraction of sonicated whole-cell lysates (modified NEHN buffer, 500 mM NaCl, 1% NP-40) of proliferating myogenic progenitors; blot for G9a or EZH2; densitometry, ratio of bound to input
[2] = molecular target: B4; assay: as above
[3] = molecular target: B5; assay: as above
EZH2 = molecular target: B3; assay: co-IP; anti-EZH2 antibody on protein G magnetic beads, incubated overnight with the soluble fraction of sonicated whole-cell lysates (modified NEHN buffer, 500 mM NaCl, 1% NP-40) of proliferating myogenic progenitors; blot for emerin; densitometry, ratio of bound to input
Sequence of EZH2 (Q61188 whole entry): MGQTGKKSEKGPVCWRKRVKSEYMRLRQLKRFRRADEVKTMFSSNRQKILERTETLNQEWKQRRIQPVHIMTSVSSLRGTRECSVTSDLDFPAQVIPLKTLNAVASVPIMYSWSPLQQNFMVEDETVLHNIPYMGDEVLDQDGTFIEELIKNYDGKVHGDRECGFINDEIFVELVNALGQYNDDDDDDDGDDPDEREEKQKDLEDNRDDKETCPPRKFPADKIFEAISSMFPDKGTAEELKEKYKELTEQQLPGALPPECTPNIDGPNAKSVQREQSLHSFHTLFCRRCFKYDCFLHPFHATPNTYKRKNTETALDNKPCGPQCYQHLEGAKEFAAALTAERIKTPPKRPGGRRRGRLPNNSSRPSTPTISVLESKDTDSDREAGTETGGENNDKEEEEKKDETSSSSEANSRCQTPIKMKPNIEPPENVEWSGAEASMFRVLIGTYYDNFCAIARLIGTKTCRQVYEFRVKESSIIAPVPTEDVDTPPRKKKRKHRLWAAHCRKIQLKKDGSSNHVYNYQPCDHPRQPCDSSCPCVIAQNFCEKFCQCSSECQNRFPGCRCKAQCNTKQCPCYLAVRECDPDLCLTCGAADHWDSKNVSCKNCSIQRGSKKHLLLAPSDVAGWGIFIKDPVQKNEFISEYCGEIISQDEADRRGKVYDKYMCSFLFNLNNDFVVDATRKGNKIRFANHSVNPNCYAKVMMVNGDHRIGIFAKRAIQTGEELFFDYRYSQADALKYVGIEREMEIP

[4] = molecular target: B1; assay: co-IP; anti-G9a antibody on protein G magnetic beads, incubated overnight with the soluble fraction of sonicated whole-cell lysates (modified NEHN buffer, 500 mM NaCl, 1% NP-40) of proliferating myogenic progenitors; blot for emerin; densitometry, ratio of bound to input

Row | percent of input bound [1] [%] | percent of input bound [2] [%] | percent of input bound [3] [%] | percent of input bound (EZH2) [%] | percent of input bound [4] | Binder
1 | 0.2 | 13.8 | 9.6 | – | – | B1
2 | – | – | – | 0.7 | 0.76 % of input | B2
3 | 2.4 | 57.9 | 89.4 | – | – | B3
4 | – | – | – | 71.8 | 80.9 % of input | B4
5 | – | – | – | 77.8 | 45.1 % of input | B5
